The values that follow come from publication PMC8382222 (2021).

For one experiment, the target named is CRP-1 peptide (C-terminal amide (amidate version); cyclized). The experiment can be described thus: SPR.
A further experiment deals with VEGF-114 peptide (C-terminal amide (amidate version); cyclized). Briefly: SPR. Background: Surface plasmon resonance follows binding to a sensor surface in real time, without labels.

B1: C-reactive protein (CRP) (natural protein)
chain: QTDMSRKAFVFPKESDTSYVSLKAPLTKPLKAFTVCLHFYTELSSTRGYSIFSYATKRQDNEILIFWSKDIGYSFTVGGSEILFEVPEVTVAPVHICTSWESASGIVEFWVDGKPRVRKSLKKGYTVGAEASIILGQEQDSFGGNFEGSQSLVGDIGNVNMWDFVLSPDEINTIYLGGPFSPNVLNWRALKYEVQGEVFTKPQLWP
As for B1, in the experiment with CRP-1 peptide, the affinity, expressed as Kd, was 12 µM and the koff – broadly, a measure of how fast the partners let go of each other – came to 0.046 s⁻¹.

B2: vascular endothelial growth factor (Recombinant Human VEGF165) (ligand)
chain: APMAEGGGQNHHEVVKFMDVYQRSYCHPIETLVDIFQEYPDEIEYIFKPSCVPLMRCGGCCNDEGLECVPTEESNITMQIMRIKPHQGQHIGEMSFLQHNKCECRPKKDRARQENPCGPCSERRKHLFVQDPQTCKCSCKNTDSRCKARQLELNERTCRCDKPRR
With B2, in the experiment with VEGF-114 peptide, the affinity, expressed as Kd, was 10.3 µM and the koff came out at 0.75 s⁻¹.
